# Measurements from patent US20150344570A1 (published 2015).
# T1: FcγRIIa R (human, UniProt P12318 34-217)
# T1 construct: extracellular domain; also called FcgRIIa R type; 2aR
# T1 sequence (looked up): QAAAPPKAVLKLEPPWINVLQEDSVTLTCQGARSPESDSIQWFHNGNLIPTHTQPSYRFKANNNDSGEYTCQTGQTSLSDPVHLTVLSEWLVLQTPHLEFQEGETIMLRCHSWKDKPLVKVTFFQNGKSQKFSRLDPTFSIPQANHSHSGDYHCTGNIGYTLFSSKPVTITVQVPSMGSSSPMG
# B1: GpH7-B3 variant P331_04F/GpL16-k0 (antibody, human IgG1, kappa)
# heavy: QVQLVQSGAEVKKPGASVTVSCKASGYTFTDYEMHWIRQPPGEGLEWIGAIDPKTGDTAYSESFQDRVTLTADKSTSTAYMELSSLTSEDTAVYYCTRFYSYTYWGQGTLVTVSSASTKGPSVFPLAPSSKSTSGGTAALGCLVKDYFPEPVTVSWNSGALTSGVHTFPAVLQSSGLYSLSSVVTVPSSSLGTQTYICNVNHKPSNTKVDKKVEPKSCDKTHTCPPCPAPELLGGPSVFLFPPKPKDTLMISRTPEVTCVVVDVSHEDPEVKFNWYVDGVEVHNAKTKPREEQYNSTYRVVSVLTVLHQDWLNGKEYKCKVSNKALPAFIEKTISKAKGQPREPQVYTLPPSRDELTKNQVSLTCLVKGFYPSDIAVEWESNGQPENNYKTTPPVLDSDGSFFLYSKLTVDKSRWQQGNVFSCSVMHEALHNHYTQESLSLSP
# light: DIVMTQSPLSLPVTPGEPASISCQASESLVHSNRNTYLHWYLQKPGQSPQLLIYKVSNRFSGVPDRFSGSGSGTDFTLKISRVEAEDVGVYYCSQNTHVPPTFGQGTKVEIERTVAAPSVFIFPPSDEQLKSGTASVVCLLNNFYPREAKVQWKVDNALQSGNSQESVTEQDSKDSTYSLSSTLTLSKADYEKHKVYACEVTHQGLSSPVTKSFNRGEC
# notes: also called Ho Ab P331_04F
# B2: GpH7-A5/GpH7-B3 variant N325_01G/GpL16-k0 (antibody, human IgG1, kappa)
# heavy 1: not shown
# heavy 2: not shown
# light: B1 light
# notes: also called He Ab N325_01G
# B3: GpH7-A5/GpH7-B3 variant G237_04F/GpL16-k0 (antibody, human IgG1, kappa)
# heavy 1: not shown
# heavy 2: not shown
# light: B1 light
# notes: also called He Ab G237_04F
# B4: GpH7-A5/GpH7-B3 variant G237_08L/GpL16-k0 (antibody, human IgG1, kappa)
# heavy 1: not shown
# heavy 2: not shown
# light: B1 light
# notes: also called He Ab G237_08L
# B5: GpH7-A5/GpH7-B3 variant A330_05P/GpL16-k0 (antibody, human IgG1, kappa)
# heavy 1: not shown
# heavy 2: not shown
# light: B1 light
# notes: also called He Ab A330_05P
# B6: GpH7-A5/GpH7-B3 variant A330_15Y/GpL16-k0 (antibody, human IgG1, kappa)
# heavy 1: not shown
# heavy 2: not shown
# light: B1 light
# notes: also called He Ab A330_15Y
# B7: GpH7-A5/GpH7-B3 variant A330_11K/GpL16-k0 (antibody, human IgG1, kappa)
# heavy 1: not shown
# heavy 2: not shown
# light: B1 light
# notes: also called He Ab A330_11K
# B8: GpH7-A5/GpH7-B3 variant A327_09D/GpL16-k0 (antibody, human IgG1, kappa)
# heavy 1: not shown
# heavy 2: not shown
# light: B1 light
# notes: also called He Ab A327_09D
# B9: GpH7-A5/GpH7-B3 variant A330_19Q/GpL16-k0 (antibody, human IgG1, kappa)
# heavy 1: not shown
# heavy 2: not shown
# light: B1 light
# notes: also called He Ab A330_19Q
# B10: GpH7-A5/GpH7-B3 variant E333_04F/GpL16-k0 (antibody, human IgG1, kappa)
# heavy 1: not shown
# heavy 2: not shown
# light: B1 light
# notes: also called He Ab E333_04F
# B11: GpH7-A5/GpH7-B3 variant A330_01G/GpL16-k0 (antibody, human IgG1, kappa)
# heavy 1: not shown
# heavy 2: not shown
# light: B1 light
# notes: also called He Ab A330_01G
# B12: GpH7-A5/GpH7-B3 variant G237_06M/GpL16-k0 (antibody, human IgG1, kappa)
# heavy 1: not shown
# heavy 2: not shown
# light: B1 light
# notes: also called He Ab G237_06M
# B13: GpH7-A5/GpH7-B3 variant E333_15Y/GpL16-k0 (antibody, human IgG1, kappa)
# heavy 1: not shown
# heavy 2: not shown
# light: B1 light
# notes: also called He Ab E333_15Y
# B14: GpH7-A5/GpH7-B3 variant G237_09D/GpL16-k0 (antibody, human IgG1, kappa)
# heavy 1: not shown
# heavy 2: not shown
# light: B1 light
# notes: also called He Ab G237_09D
# B15: GpH7-A5/GpH7-B3 variant E333_09D/GpL16-k0 (antibody, human IgG1, kappa)
# heavy 1: not shown
# heavy 2: not shown
# light: B1 light
# notes: also called He Ab E333_09D
# B16: GpH7-A5/GpH7-B3 variant A330_12R/GpL16-k0 (antibody, human IgG1, kappa)
# heavy 1: not shown
# heavy 2: not shown
# light: B1 light
# notes: also called He Ab A330_12R
# B17: GpH7-A5/GpH7-B3 variant E333_07I/GpL16-k0 (antibody, human IgG1, kappa)
# heavy 1: not shown
# heavy 2: not shown
# light: B1 light
# notes: also called He Ab E333_07I
# B18: GpH7-A5/GpH7-B3 variant A327_10E/GpL16-k0 (antibody, human IgG1, kappa)
# heavy 1: not shown
# heavy 2: not shown
# light: B1 light
# notes: also called He Ab A327_10E
# B19: GpH7-A5/GpH7-B3 variant G236_14T/GpL16-k0 (antibody, human IgG1, kappa)
# heavy 1: not shown
# heavy 2: not shown
# light: B1 light
# notes: also called He Ab G236_14T
# B20: GpH7-A5/GpH7-B3 variant E333_05P/GpL16-k0 (antibody, human IgG1, kappa)
# heavy 1: not shown
# heavy 2: not shown
# light: B1 light
# notes: also called He Ab E333_05P
# B21: GpH7-A5/GpH7-B3 variant E333_08L/GpL16-k0 (antibody, human IgG1, kappa)
# heavy 1: not shown
# heavy 2: not shown
# light: B1 light
# notes: also called He Ab E333_08L
# B22: GpH7-A5/GpH7-B3 variant E269_09D/GpL16-k0 (antibody, human IgG1, kappa)
# heavy 1: not shown
# heavy 2: not shown
# light: B1 light
# notes: also called He Ab E269_09D
# B23: GpH7-A5/GpH7-B3 variant G237_02A/GpL16-k0 (antibody, human IgG1, kappa)
# heavy 1: not shown
# heavy 2: not shown
# light: B1 light
# notes: also called He Ab G237_02A
# Target: T1, FcγRIIa R
# Assay: SPR (Biacore), captured antibody, FcγR as analyte; relative binding activity
Ho/Con_2aR,He/Con_2aR,Binder
106 % (GpH7-B3/GpL16-k0 = 100),–,B1
–,107 % (GpH7-A5/GpH7-B3/GpL16-k0 = 100),B2
–,126 % (GpH7-A5/GpH7-B3/GpL16-k0 = 100),B3
–,133 % (GpH7-A5/GpH7-B3/GpL16-k0 = 100),B4
–,115 % (GpH7-A5/GpH7-B3/GpL16-k0 = 100),B5
–,102 % (GpH7-A5/GpH7-B3/GpL16-k0 = 100),B6
–,110 % (GpH7-A5/GpH7-B3/GpL16-k0 = 100),B7
–,124 % (GpH7-A5/GpH7-B3/GpL16-k0 = 100),B8
–,104 % (GpH7-A5/GpH7-B3/GpL16-k0 = 100),B9
–,102 % (GpH7-A5/GpH7-B3/GpL16-k0 = 100),B10
–,109 % (GpH7-A5/GpH7-B3/GpL16-k0 = 100),B11
–,133 % (GpH7-A5/GpH7-B3/GpL16-k0 = 100),B12
–,101 % (GpH7-A5/GpH7-B3/GpL16-k0 = 100),B13
–,156 % (GpH7-A5/GpH7-B3/GpL16-k0 = 100),B14
–,103 % (GpH7-A5/GpH7-B3/GpL16-k0 = 100),B15
–,104 % (GpH7-A5/GpH7-B3/GpL16-k0 = 100),B16
–,104 % (GpH7-A5/GpH7-B3/GpL16-k0 = 100),B17
–,110 % (GpH7-A5/GpH7-B3/GpL16-k0 = 100),B18
–,103 % (GpH7-A5/GpH7-B3/GpL16-k0 = 100),B19
–,105 % (GpH7-A5/GpH7-B3/GpL16-k0 = 100),B20
–,103 % (GpH7-A5/GpH7-B3/GpL16-k0 = 100),B21
–,105 % (GpH7-A5/GpH7-B3/GpL16-k0 = 100),B22
–,126 % (GpH7-A5/GpH7-B3/GpL16-k0 = 100),B23
